Experimental data from patent EP4703390A1.

Legend:
[1] = biological target: EGFR and c-Met on the surface of tumor cells (human) (UniProt P00533); experiment: flow cytometry, NCI-H1975 cells; hIgG1 negative control, EC50 could not be fitted
[2] = biological target: EGFR and c-Met on the surface of tumor cells (human) (UniProt P00533); experiment: flow cytometry, A431 cells; hIgG1 negative control, EC50 could not be fitted
[3] = biological target: EGFR and c-Met on the surface of tumor cells (human) (UniProt P00533); experiment: flow cytometry, NCI-H1993 cells; hIgG1 negative control, EC50 could not be fitted
[4] = biological target: EGFR and c-Met on the surface of tumor cells (human) (UniProt P00533); experiment: cell-based or functional assay

Question: With “hIgG1 (Biointron, Cat. No. B117901) (antibody)” as the substance, how does the Top(MFI) [1] read?
Answer: 38700 MFI

Question: What about the Top(MFI) [2] of the same substance?
Answer: 168000 MFI

Question: And the Top(MFI) [3]?
Answer: 31200 MFI

Question: And the endocytic activity Top(MFI), A431 cells (negative control) [4]?
Answer: 118000 MFI

Question: And the endocytic activity Top(MFI), NCI-H441 cells (negative control) [4]?
Answer: 97500 MFI

Question: What about the endocytic activity Top(MFI), NCI-H1975 cells (negative control) [4] of the same substance?
Answer: 110000 MFI
